Data: patent publication US5336488A, “Method of treating or preventing mastitis in animals with involuting mammary glands by administering recombinant cytokines” (American Cyanamid Company, priority 1992, dated 1994)

Key:
S. aureus [1] = test: Therapy of established S. aureus mastitis infections; assay type: in vivo, S. aureus (in lactating Holstein dairy cattle)
Description: The percentage of quarters clearing the infection for greater than 1 milking (RESPONDING), as compared to the percentage of quarters which actually cure their infections (CURE) is a measure of the failure of the host cells to kill the bacteria. The relapse rate is the greatest for r-BoIL-2 (combined relapse rate of 40% for the 10 mg dose X's 3). […] Furthermore, if activation of the host cells is effective, as indicated by the r-BoIL-2 and r-BoGM-CSF, then a combination therapy with r-BoIL-1 or antibiotics is useful.
^1 S. aureus infections are established 2-3 weeks prior to treatment.
Treatments are administered after the AM or PM milking by 1-3 successive
intramammary infusions. A total of 120 mammary glands from 28 different
lactating Holstein dairy cattle are used. Recombinant bovine
interleukin1(IL-1) and interleukin2(IL-2) are obtained from IMMUNEX Corp.
Seattle, WA. Na cephapirin is prepared is PBS; and CefaLak ®
(BristolMeyers) is used according to package# insert instructions.
^2 Cytokines are infused intramammary through the teat canal after th
PM milking at the indicated intervals. The total dose is delivered in a
total volume of 10 ml of sterile PBS. The biological activity of rBoIL-1
and rBoIL-2 is 32,000 Units/μg and 22,000 Units/μg, respectively. A
total dose per infusion 200 mg of Na cephapirin and CefaLak ® is
administered after consecutive PM and AM milkings, according to described
^3 The % RESPONDING = quarters which transiently (> 1 milking) are
free of S. aureus divided by the total number of quarters treated.
^4 The % CURED QUARTERS = # of quarters which clear their infection
and remain free of S. aureus divided by the total number of quarters
treated. Infections are considered to have relapsed if there are > 1 CFUs
from three consecutive AM milkings, or > 20 CFUs for two consecutive afte
therapy at anytime during the 14 day monitoring period.
^5 The % RELAPSE = [1 - {[…]}] ×

milk PMNs [2] = test: Inducible superoxide of milk PMNs after PMA stimulation (cytochrome-c reduction); assay type: in vivo, bovine (Holstein dairy cattle); conditions: r-BoGM-CSF, vs resident PMNs, FIG. 2I
Description: (§1) FIGS. 2(A-I): Quantity and Quality of Milk PMNs from Mammary Glands Infused with r-BolL-1 or r-BoIL-2
(§2) A total of 12 mammary glands from normal lactating Holstein dairy cattle are infused through the teat canal with either 200 μg of r-BoIL-1; 2 mg of r-BoIL-2; or 1 mg of r-BoGM-CSF. Milk samples are collected and the number of viable somatic cells counted on a Coulter® ZM with a C256 Channelyzer. The data is expressed as the somatic cell count per ml of milk sampled at 16, 40, 64 and 88 hours after infusion for r-BoIL-1 (A); r-BoIL-2 (D); or r-BoGM-CSF(G). The total percentage of phagocytosis by milk PMNs (polymorphonuclear cells) is quantitatively measured by flow cytometry by measuring the percentage of cells ingesting 2μ fluorescent beads for r-BoIL-1 (B); r-BoIL-2(E); or r-BoGM-CSF(H). The total population is first gated by forward angle light scatter, FALS and 90° light scatter to only consider viable polymorphonuclear cells. The induction of superoxide after PMA (520.eta.g)stimulation is also monitored using a whole cell cytochrome-c reduction assay, for r-BoIL-1 (C); r-BoIL-2(F); or r-BoGM-CSF(I). PMNs from untreated milk could not be induced to produce superoxide, while peripheral blood PMNs are inducible in a range of 5-15 .eta.M O2 /Minute/10^7 PMNs.

[3] = Specific biological activity of recombinant cytokine protein; conditions: mass of protein
Bovine Mammary Gland = test: Dose response of bovine mammary gland to intramammary infusion: somatic cell influx into milk; assay type: in vivo, bovine (Holstein dairy cattle)
Description: FIG. 1: Dose Response of Bovine Mammary Gland to Intramammary Infusion of Recombinant Cytokines
Five fold serial dilutions of r-BolL-1 (recombinant bovine interleukin-1) from 312.5 μg to […]: r-BoIL-2 (recombinant bovine interleukin-2) from 40 mg to 0.1 mg: and r-BoGM-CSF (recombinant bovine granulocyte macrophage colony stimulating factor) from 0.2 mg to […] are administered at time 0 into 3-4 mammary glands from normal lactating Holstein dairy cattle. A total of 54 mammary gland quarters, 3-4 per group, are infused through the teat canal with various concentrations of recombinant bovine cytokines after the morning milking. Milk samples are collected and the number of viable somatic cells counted on a Coulter® ZM with a C256 Channelyzer. The data is expressed as the somatic cell count per ml of milk
These doses are guidelines for quantitative induction of somatic cells, but significant beneficial qualitative changes can be induced with lower doses. The specific biological activity for r-BoIL-1 as a chemoattractant is approximately 10,000 fold greater than r-BoIL-2, although the in vitro specific bioactivities are equivalent. Active IL-2 inhibition or decreased biostability in milk might explain this discrepancy. The peak number of cells after r-BoIL-1 infusion with a maximal tolerable dose is 4-5 fold greater than r-BoIL-2. The kinetics of PMN migration into the mammary gland is such that migration occurs 8- 24 hours sooner for r-BoIL-1 infusions […] the BolL-2 infusion depending upon the dose. The dominant cell type after r-BoIL-1 or r-BoIL-2 infusion is PMNs.

S. aureus [4] = test: Prevention of S. aureus mastitis in lactating animals; assay type: in vivo, S. aureus (in lactating Holstein dairy cattle); conditions: for % CONTROL / % INFECTED: 1 mg, vs Control 2 (30 CFUs)
Excerpt: This maximal protection correlates with the peak quantitative biological response for this cytokine. […] This also correlates with the peak quantitative biological response of this cytokine and also marks the qualitative increase in phagocytosis and inducible superoxide, FIG. 2D & 2E.
^1 Single intramammary infusion administered after the PM milking. A
total of 100 mammary glands from 22 different lactating Holstein dairy
^2 All glands are free of bacteria on 5 successive samples after the
AM milking prior to the initial infusion.
^3 The total dose in mass of protein is indicated. The biological
^4 Infusions of cytokines were administerd simultaneously with S.
aureus 0, 24 or 48 hours proir to challenge with 30-200 CFUs of S.
^5 Individual quarters are considered cured if the milk samples remai
free of S. aureus. for 14 days after intramammary challenge with of S.
^6 The % Control = (1 - {% Infected After Therapy divided by Infected
in Control Quarters)} × 100.
*Quarters in Control 1 are challenged with 250 CFUs of S. aureus..
Quarters in Control 2 are challenged with 30 CFUs of S. aureus.

milk PMNs [5] = test: Quantity of milk PMNs after intramammary infusion; assay type: in vivo, bovine (Holstein dairy cattle)
Description: as §1, §2

milk PMNs [6] = test: Phagocytosis of fluorescent beads by milk PMNs (flow cytometry) after intramammary infusion; assay type: in vivo, bovine (Holstein dairy cattle); conditions: FIG. 2H
Description: as §1, §2

Row | Molecule | % CURES (S. aureus [1]; 200 mg, interval 12 hrs) [%] | % RELAPSE (S. aureus [1]; 200 mg, interval 12 hrs) [%] | % RESPONSE (S. aureus [1]; 200 mg, interval 12 hrs) [%] | relapse rate (S. aureus [1]; as quoted in text of Example 5) [%] | inducible superoxide production (milk PMNs [2]) | biological activity [3] | influx of cells into the mammary gland (Bovine Mammary Gland; intramammary infusion of up to 5 mg) | infiltration of somatic cells into the milk (Bovine Mammary Gland; intramammary infusion, lactating cattle, FIG. 1) | % CONTROL (S. aureus [4]; -24 hrs) [%] | % INFECTED (S. aureus [4]; -24 hrs) [%] | % CONTROL (S. aureus [4]; -48 hrs) [%] | % INFECTED (S. aureus [4]; -48 hrs) [%] | protection from S. aureus (S. aureus [4]; administered 24 and 48 hours prior to challenge) | protection from subsequent S. aureus challenge (S. aureus [4]; intramammary infusion, Table 1) | quantitative changes in milk PMNs (milk PMNs [5]; as summarised in Example 4) | quantitative increase in milk PMNs (milk PMNs [5]; even with a 5 mg intramammary dose, FIG. 2G) | phagocytic ability of the cells in the milk of treated glands (milk PMNs [6]; 24 and 48 hours) | percent of cells which are phagocytic (milk PMNs [6]; r-BoGM-CSF) | increase in phagocytosis, duration (milk PMNs [6]; r-BoGM-CSF, up to 112 hrs)
1 | CC(=O)OCC1=C(C(=O)O)N2C(=O)[C@@H](NC(=O)CSc3ccncc3)[C@H]2SC1 [Na Cephapirin, sodium cephapirin, reference compound] | 42 | 51 | 86 | 57 | – | – | – | – | – | – | – | – | – | – | – | – | – | – | –
2 | recombinant bovine granulocyte macrophage colony stimulating factor (protein, UniProt P11052 18-143, looked up) Granulocyte-macrophage …: APTRPPNTATRPWQHVDAIKEALSLLNHSSDTDAVMNDTEVVSEKFDSQEPTCLQTRLKLYKNGLQGSLTSLMGSLTMMATHYEKHCPPTPETSCGTQFISFKNFKEDLKEFLFIIPFDCWEPAQK | – | – | – | – | increased over the resident PMNs | 38,000 Units/μg | fails to elicit any significant influx of cells into the mammary gland | no significant chemoattractant activity | 76 | 20 | 76 | 20 | good protection from S. aureus | capable of protecting the host from subsequent S. aureus challenge | only minor quantitative changes in milk PMNs | fails to elicit any significant quantitative increase in milk PMNs | increase phagocytic ability | enhanced | maintained above pre-infusion levels for up to 112 hrs
